This note sets out measurements from US7354735B2, “Nucleic acid encoding fluorescent protein constructs and methods for detecting apoptosis” (Hong Kong University of Science and Technology, priority 2001, dated 2008).

Assay [1] concerns the target T1, caspase-3 (Homo sapiens, UniProt P42574).
T1 sequence (P42574 29-175 limits assumed): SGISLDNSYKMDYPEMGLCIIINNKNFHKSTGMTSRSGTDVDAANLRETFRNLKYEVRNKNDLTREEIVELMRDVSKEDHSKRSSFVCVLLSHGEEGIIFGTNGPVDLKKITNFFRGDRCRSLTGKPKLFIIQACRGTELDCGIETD
T1 sequence (P42574 176-277 limits assumed): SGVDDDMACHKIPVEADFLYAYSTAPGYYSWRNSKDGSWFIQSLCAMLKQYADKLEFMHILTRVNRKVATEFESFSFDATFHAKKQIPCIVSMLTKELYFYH
Briefly: Western blot analysis of caspase-3 cleavage of purified FRET probes. The class given is biochemical. The note with it: for cleavage by caspase-3 (Western blot): purified protein incubated with caspase-3, 37 degree C, 1-2 hrs, anti-GFP antibody. The procedure:
Purified FRET probes were incubated with caspase-3 in the reaction buffer at 37. degree. C. for 1-2 hrs. The reaction mixtures were separated on a SDS-PAGE and transferred onto a nitrocellulose membrane. The Protein blot was then probed with anti-GFP antibody (CLONTECH™). Acetyl-Asp-Glu-Val-Asp-aldehyde called CHO (AC-DEVD-CHO) is a chemical derivative of SEQ ID NO: 11 and a caspase-3 specific inhibitor.
To determine whether these FRET probes are sensitive to caspase-3 cleavage; the purified proteins were incubated with caspase-3 and then subjected to Western blot analysis. Antibodies were purchased from CLONTECH™.

In assay [2] the target is T1, caspase-3. In words: Spectrofluorometer measurement of FRET emission spectra before and after caspase-3 treatment. The class given is biochemical. The conditions noted are these: excitation 433 nm; for YFP (526 nm)/CFP (480 nm) emission ratio after caspase treatment: after incubating with caspase-3; for YFP (526 nm)/CFP (480 nm) emission ratio before caspase treatment: before caspase-3. The procedure: The excitation wavelength used to excite CFP in the probe was 433 nm. −cpp32: no caspase-3 in the reaction. +cpp32: caspase-3 was added into the reaction.
The fluorescent energy transfer from CYP to YFP in the FRET probes was measured using a spectrofluorometer. When CFP was excited in each probe at the excitation wavelength of 433 nm, very little emission light was detected from the FRET probes at the known emission wavelength for CFP (480 nm). Instead, a significant amount of emitted fluorescent light was detected at the emission wavelength of YFP which peaks at 526 nm (FIG. 4). […] It was then determined whether the FRET effect was sensitive to the caspase cleavage. The FRET probes were treated with caspase-3 and analyzed using a spectrofluorometer. […] As a control, no change for the emission spectrum was observed from the CFP-YFP fusion protein which lacks the substrate sequence (FIG. 4A). Based on spectra similar to FIG. 4, it was determined the YFP (526 nm)/CFP (480 nm) emission ratio for all three FRET probes before and after caspase treatment. This YFP/CFP ratio was used to quantify the FRET effect.

For assay [3], the target named is T1, caspase-3. In words: Dosage-dependent caspase-3 cleavage assay. The conditions noted are these: 1.28 μg sensor protein, caspase-3 0.3125 ng to 1.28 μg, 1 hour; for sensitivity to caspase-3: normalized YFP/CFP ratio. The class given is biochemical. The protocol:
Same amount of purified sensor A and sensor B protein was incubated with different amount of caspase-3 ranging from 0.3125 ng to 1.28 μg for 1 hr. The emission spectra of both YFP and CFP were measured for each sample at the end of reaction using a spectrofluorometer. The emission ratio (YFP/CFP) of each sample was normalized to the value of the ratio from a mock control with no caspase-3.
To compare the sensitivity of sensor A and sensor B on caspase-3 activity, a dosage-dependent caspase-3 cleavage assay was performed. In this experiment, 1.28 μg amount of the purified sensor A or sensor B protein was incubated with different amount of caspase-3 ranging from 0.3125 ng to 1.28 μg for 1 hour. The emission spectra of both YFP and CFP were measured for each sample at the end of the reaction using a spectrofluorometer. The emission ratio (YFP/CFP) of each caspase reaction was normalized with that of the mock control having no caspase-3 in the reaction.

In assay [4] the test system is HeLa cells. In words: Imaging of FRET probe in living HeLa cells during UV-induced apoptosis. It counts as cell-based. The protocol: HeLa cells expressing either sensor A or CFP-YFP fusion protein were induced to apoptosis by UV irradiation for 5 min. When the probe was excited at 440 nm, the fluorescent intensity of CFP (at 480±15 nm) and that of YFP (at 535±12.5 nm) from same cell before (A, C) and after (B, D) UV treatment was recorded using a cooled CCD imaging system. The representative ratio images of YFP/CFP are shown here. A significant FRET reduction is seen only in panel B from both cells expressing sensor A, but not in panel D with cells expressing the control fusion protein.
FIG. 7 is a statistic analysis of FRET changes during apoptosis. Images were recorded as described in FIG. 6. The fluorescent intensities of YFP and CFP were then determined from each image. The average values of YFP/CFP from 13 cells expressing sensor A and 9 cells expressing CFP-YFP fusion protein before and after UV-irradiation are plotted here. Nearly 4-fold reduction in the apoptotic cells expressing was found using the FRET probe but not in the control cells expressing the CFP-YFP fusion gene.
To test whether this FRET probe can be used to detect caspase activity in living cells, sensor A was expressed in HeLa cells and measured the FRET effect of the probe in single cells using a cooled CCD imaging system. The fluorescent images of the cell obtained from the emission wavelengths of CFP and YFP were recorded before and after UV treatment. A computer software (Metamorph, Universal Imaging) was used to generate a ratio image of YFP/CFP for each cell under different treatments. […] At 3 hours after the UV treatment, these cells had entered apoptosis. […] The average YFP/CFP emission ratio changes was calculated for 13 apoptotic cells expressing sensor A, and found a nearly 4-fold reduction after UV treatment (FIG. 7).
Recently, sensor A was used to study the dynamics of caspase-3 activation during UV-induced apoptosis in living HeLa cells.

As for “acetyl-Asp-Glu-Val-Asp-aldehyde [AC-DEVD-CHO, reference compound]”, the “cleavage of FRET probe (sensor A) by caspase-3 in the presence of inhibitor” value in assay [1] (caspase-3 plus inhibitor, Western blot) was “no FRET probe (sensor A) was cleaved”.
For “sensor A: CFP-YFP FRET fusion protein with 16 amino acid linker SGLRSGGDEVDGGSNS (SEQ ID NO: 7) containing the caspase-3 recognition motif (left off: small tags and cut ends; large carriers)”, the “cleavage by caspase-3 (Western blot)” value in assay [1] is listed as “caspase-3 can cleave almost all”. In assay [2], the “change of emission spectrum on caspase-3 treatment” value was “completely changed”, the “YFP (526 nm)/CFP (480 nm) emission ratio after caspase treatment” value worked out at 0.59 and the “YFP (526 nm)/CFP (480 nm) emission ratio before caspase treatment” value was found to be 3.02. In addition, in assay [3], the “relative sensitivity to caspase-3 (sensor A versus sensor B)” value is given as “slightly more sensitive than sensor B” and the “sensitivity to caspase-3” value is “highly sensitive”. The “reduction of average YFP/CFP emission ratio after UV treatment” value in assay [4] (HeLa cells expressing the probe, before and after UV irradiation, 13 cells sensor A, 9 control cells) is ~4 fold. For the same substance, in assay [4] (HeLa cells, 3 hours after UV treatment), the “intensity of YFP/CFP ratio image after UV treatment” value is on record as “decease dramatically”. In assay [4] (living HeLa cells), the “detection of caspase-3 activation during UV-induced apoptosis” value is “clearly detected prior to any visible cell morphological changes”.
Regarding “sensor B: CFP-YFP FRET fusion protein with 22 amino acid linker SGLRSGGSGGDEVDGGSGGSNS (SEQ ID NO: 10) containing DEVD (left off: small tags and cut ends; large carriers)”, the “cleavage by caspase-3 (Western blot)” value in assay [1] was “caspase-3 can cleave almost all”. For the same substance, in assay [2], the “change of emission spectrum on caspase-3 treatment” value is listed as “completely changed”, the “YFP (526 nm)/CFP (480 nm) emission ratio after caspase treatment” value was determined as 0.59 and the “YFP (526 nm)/CFP (480 nm) emission ratio before caspase treatment” value stood at 2.76. Besides, the “sensitivity to caspase-3” value in assay [3] is on record as “highly sensitive”.
